These results are taken from patent US20250306040A1 (UNIVERSITY OF KENTUCKY RESEARCH FOUNDATION, published 2025).

The target in test [1] is T1, Aβ40 synthetic peptide (AS-24235, Anaspec) (human, UniProt P05067 672-711).
T1 construct: domain: Aβ40; also called human Aβ40
As to the kind of experiment: amylin-Aβ sandwich ELISA on co-incubated peptides.

Test [2] deals with T1, Aβ40 synthetic peptide (AS-24235, …). Kind of test: time course (0 to 24 hours) of sandwich ELISA signal of human amylin incubated with Aβ40, in parallel with Th-T fluorescence. For orientation: An ELISA detects its analyte on a solid surface through an enzyme-linked reagent.
For test [3] the target is unchanged. Kind of test: amylin-Aβ sandwich ELISA on co-incubated peptides, human amylin against rat amylin. The method, then: The reaction was stopped by adding 50 μL of stop solution (N600, Thermo Scientific) after developing the signals, the plate was read at 450 nm in a spectrophotometer. Amylin-Aβ concentrations were calculated by generating a graph between relative optical density (O.D.) 450 of standards vs standard concentrations, after subtracting the optical density of standard blank and sample blank from the optical density of standards and samples respectively.
Amylin-Aβ aggregates were prepared using the procedure described by O'Nuallain et al. Briefly, 30 μM human amylin synthetic peptide (AS-60254-1, Anaspec) was incubated in PBSA (PBS+0.05% sodium azide) in a water bath at 37° C. for 5 hrs. Aβ₄₀ synthetic peptide (16.2 μM) (AS-24235, Anaspec) was preincubated at 37° C. for 2 hrs. […]
Specificity of amylin-Aβ sandwich ELISA was confirmed using a solution phase amylin-Aβ aggregation assay described in O'Nuallain et al. Synthetic human amylin and Aβ₄₀ peptides were incubated for promoting the amylin-Aβ aggregation and subjected to the amylin-Aβ sandwich ELISA. […] A robust amylin-Aβ immuno-reactivity signal was detected in co-aggregated amylin-Aβ solution, but not in the homogenous amylin and Aβ solutions (FIG. 2A). The aggregated amylin-Aβ solution was assayed for biochemical characteristics of amyloid by measuring the Thioflavin-T (Th-T) fluorescence signal intensity. […]

No end group written: not given here.

T1 sequence (P05067 672-711 limits assumed): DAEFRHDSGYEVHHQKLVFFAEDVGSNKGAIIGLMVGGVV

B1: rat amylin (peptide, UniProt P12969 38-74, looked up)
peptide: KCNTATCATQRLANFLVRSSNNLGPVLPPTNVGSNTY
notes: also called rodent amylin; non-amyloidogenic rat amylin
Take B1: in test [1], the binding result is on record as “binds”.

B2: human amylin synthetic peptide (AS-60254-1, Anaspec) (peptide)
peptide: KCNTATCATQRLANFLVHSSNNFGAILSSTNVGSNTY
modifications: ends and bridges not checked; cysteine pairing not given here
notes: The same id is used for human amylin in human brain sections and in HIP rat pancreas; also called islet amyloid polypeptide; IAPP
With B2, the “fold increase of signal intensity from the baseline” value in test [2] is 3 fold. In addition, in test [3], the “fold amylin-Aβ ELISA signal intensity against rat amylin-Aβ co-aggregation” value was about 7 fold.
